Test results taken from ChEMBL document CHEMBL2074302, “ATP-dependent transport for glucuronides in canalicular plasma membrane vesicles” (Biochem Biophys Res Commun, 1991).

Substrate: O=C(O)[C@H]1O[C@@H](Oc2ccc([N+](=O)[O-])cc2)[C@H](O)[C@@H](O)[C@@H]1O
Assay: TP_TRANSPORTER: uptake in bile canalicular membrane vesicles from Wistar rat
Format: functional, cell membranes, Bile canalicular membrane vesicle

B1: ATP-binding cassette sub-family C member 2 (Rattus norvegicus) (protein)
chain: MDKFCNSTFWDLSLLESPEADLPLCFEQTVLVWIPLGFLWLLAPWQLYSVYRSRTKRSSITKFYLAKQVFVVFLLILAAIDLSLALTEDTGQATVPPVRYTNPILYLCTWLLVLAVQHSRQWCVRKNSWFLSLFWILSVLCGVFQFQTLIRALLKDSKSNMAYSYLFFVSYGFQIVLLILTAFSGPSDSTQTPSVTASFLSSITFSWYDRTVLKGYKHPLTLEDVWDIDEGFKTRSVTSKFEAAMTKDLQKARQAFQRRLQKSQRKPEATLHGLNKKQSQSQDVLVLEEAKKKSEKTTKDYPKSWLIKSLFKTFHVVILKSFILKLIHDLLVFLNPQLLKLLIGFVKSSNSYVWFGYICAILMFAVTLIQSFCLQSYFQHCFVLGMCVRTTVMSSIYKKALTLSNLARKQYTIGETVNLMSVDSQKLMDATNYMQLVWSSVIQITLSIFFLWRELGPSILAGVGVMVLLIPVNGVLATKIRNIQVQNMKNKDKRLKIMNEILSGIKILKYFAWEPSFQEQVQGIRKKELKNLLRFGQLQSLLIFILQITPILVSVVTFSVYVLVDSANVLNAEKAFTSITLFNILRFPLSMLPMVTSSILQASVSVDRLERYLGGDDLDTSAIRRVSNFDKAVKFSEASFTWDPDLEATIQDVNLDIKPGQLVAVVGTVGSGKSSLVSAMLGEMENVHGHITIQGSTAYVPQQSWIQNGTIKDNILFGSEYNEKKYQQVLKACALLPDLEILPGGDMAEIGEKGINLSGGQKQRVSLARAAYQDADIYILDDPLSAVDAHVGKHIFNKVVGPNGLLAGKTRIFVTHGIHFLPQVDEIVVLGKGTILEKGSYRDLLDKKGVFARNWKTFMKHSGPEGEATVNNDSEAEDDDDGLIPTMEEIPEDAASLAMRRENSLRRTLSRSSRSSSRRGKSLKNSLKIKNVNVLKEKEKEVEGQKLIKKEFVETGKVKFSIYLKYLQAVGWWSILFIILFYGLNNVAFIGSNLWLSAWTSDSDNLNGTNNSSSHRDMRIGVFGALGLAQGICLLISTLWSIYACRNASKALHGQLLTNILRAPMRFFDTTPTGRIVNRFSGDISTVDDLLPQTLRSWMMCFFGIAGTLVMICMATPVFAIIIIPLSILYISVQVFYVATSRQLRRLDSVTKSPIYSHFSETVTGLPIIRAFEHQQRFLAWNEKQIDINQKCVFSWITSNRWLAIRLELVGNLVVFCSALLLVIYRKTLTGDVVGFVLSNALNITQTLNWLVRMTSEAETNIVAVERISEYINVENEAPWVTDKRPPADWPRHGEIQFNNYQVRYRPELDLVLKGITCNIKSGEKVGVVGRTGAGKSSLTNCLFRILESAGGQIIIDGIDVASIGLHDLRERLTIIPQDPILFSGSLRMNLDPFNKYSDEEVWRALELAHLRSFVSGLQLGLLSEVTEGGDNLSIGQRQLLCLGRAVLRKSKILVLDEATAAVDLETDSLIQTTIRKEFSQCTVITIAHRLHTIMDSDKIMVLDNGKIVEYGSPEELLSNRGSFYLMAKEAGIENVNHTEL
Q: For B1, which Km is on record?
A: The Km was 20 µM.
